This series deals with the molecule itself. The series can be described thus: crystal structure.

B1: BexE (enzyme, Amycolotopsis orientalis sp. vinerea, UniProt D7RFJ3 1-487, looked up)
chain: MDAPVVIAGAGPAGLMLAGELRLAGIGVVVLERLPARTGESRGLGFTARTMEVFDQRGLLRRFGEVQTSDQGHFGGIPVDFGLLDGAHQAAKTIPQSATEAVLEAWAGELGADIRRGHELTGVRDDGDGVAVTVRGPAGEHVLRAGWLVGCDGGRSAVRKAVGFDFPGTAATREMFLADLRGVELEPRMIGESLPGGMVMVGPLPGGVTRIIVCERDAPPRRRTGPPPFHEVADAWKRITGIDISAAEPVWLSAFGDATRQVTEYRRGRVLLAGDAAHVHLPAGGQGMNAGIQDAVNLGWKLAAVVRGTARADLLDTYHGERHPVGVRLLMNTRAQGLLFLNGAEMQPLRDVLAELTGYPDVARHLAAMVSGLEIAYDVGGGSHPWLGRRLPRLELDRGGRPSSTAELLRPARGLLLDFAGNAALRDRAAPWAGRIDVVTARPAAGRVPGATTAVLVRPDGHVAWAAPGTHADLPMALERWFGPAPR
Take B1: the binding result is reported as “binds”.

For the origin of these results see article PMC4902875 (ACS chemical biology, 2016).
